Data on three molecules can be found in patent US12509709B2, “Methods for making L-glufosinate” (BASF SE, priority 2016, dated 2025).

One assay deals with weeds. The conditions noted are these: EP 0030424; cited from earlier work.
Assay [1] is described as follows: Conversion of PPO to L-glufosinate with lysine as amine donor. It counts as biochemical. The conditions noted are these: over 20 hours; 0.4 mg/mL gabT, 25 mM PPO, 75 mM L-Lysine, pH 8.0, 30° C. As to the method: Lysine can be used as an amine donor for conversion of PPO to L-glufosinate with the use of an appropriate TA. PPO was converted to L-glufosinate in a reaction with the following components: • 0.4 mg/mL gabT (purified as in Example 3) • 25 mM PPO (pHed to 8 w/NaOH) • 0.2 mM pyridoxal phosphate • 75 mM L-Lysine dihydrochloride (pHed to 8 w/NaOH) • 100 mM Kphos buffer pH 8.0
The reaction was incubated at 30° C. for 20 hours with shaking (250 rpm). L-glufosinate was formed at a rate of 0.4 mM/hr over the 20 hours.

The nature of assay [2]: Conversion of PPO to L-glufosinate with isopropylamine as amine donor. It counts as biochemical. The note with it: 0.25 mg/mL TA, 25 mM PPO, 250 mM isopropylamine, pH 8.0, 25 to 30° C. As to the method: Isopropylamine can be used as an amine donor for conversion of PPO to L-glufosinate with the use of an appropriate TA. PPO was converted to L-glufosinate in a reaction with the following components: • 0.25 mg/mL TA encoded by SEQ ID NO: 1 • 25 mM PPO • 0.2 mM pyridoxal phosphate • 250 mM isopropylamine (pHed to 8 w/H3PO4) • 100 mM Kphos buffer pH 8.0
The reaction was incubated at 25 to 30° C. for 30 hours with gentle shaking (250 rpm). At 0 hours, the amount of L-glufosinate as measured by HPLC was 0 mM, at 20 hours it was 14 mM, and at 30 hours it was 18 mM.

As for `CP(=O)(O)CCC(=O)C(=O)O` [PPO, 2-oxo-4-(hydroxy(methyl)phosphinoyl)butyric acid], the herbicidal activity result with weeds was “can contribute herbicidal activity”.

B1: gabT: gabT transaminase from Escherichia coli (UniProt P22256; SEQ ID NO: 3) (protein, listed as Escherichia coli)
chain: MNSNKELMQRRSQAIPRGVGQIHPIFADRAENCRVWDVEGREYLDFAGGIAVLNTGHLHPKVVAAVEAQLKKLSHTCFQVLAYEPYLELCEIMNQKVPGDFAKKTLLVTTGSEAVENAVKIARAATKRSGTIAFSGAYHGRTHYTLALTGKVNPYSAGMGLMPGHVYRALYPCPLHGISEDDAIASIHRIFKNDAAPEDIAAIVIEPVQGEGGFYASSPAFMQRLRALCDEHGIMLIADEVQSGAGRTGTLFAMEQMGVAPDLTTFAKSIAGGFPLAGVTGRAEVMDAVAPGGLGGTYAGNPIACVAALEVLKVFEQENLLQKANDLGQKLKDGLLAIAEKHPEIGDVRGLGAMIAIELFEDGDHNKPDAKLTAEIVARARDKGLILLSCGPYYNVLRILVPLTIEDAQIRQGLEIISQCFDEAKQ
As for B1, the “rate of L-glufosinate formation” value in assay [1] was 0.4 mM/h.

B2: TA encoded by SEQ ID NO: 1: transaminase with the amino acid sequence of SEQ ID NO: 1 (protein, listed as Sinorhizobium arboris)
chain: MNIAAQSWERREATSFFHTFTDLPSLKTDGPVIIDHGEGPYIIDTVGRRYFEGNSGLWNMTLGFSERRLSDAALKQYQEFPGYHTFFGRNSKPTVELAERMLKLAPAPMSRVFFTNSGSEANESIVKLLWMMWAAEGRPERRKLLTRKNAYHGATVMASALTGKDYVKAFGLPGPEIVTLDCPHAWRFALPGEGDDEFAARLAANLETRILQEGPETIAGMFAEPVMGAGGVIVPPATYFAKIQPVLQRYGIPLIADEVICGFGRTGSLWGTLAVGQQPDIIVASKSMSAGYFPMGAVMLSADIDKRATAASEVWEEFPHGFTTGGHPVGCAISLEAIRIITEEGVFENVKSVSETFQSGLRALADHPMIGEARGMGLMGALETVADKKTKQSFSGDLRIGERISKEARDRGFIIRPLGSSVVLAPPFISTHGQIEELLAVLKEVLDVVYGTVKGEVA
modifications: Sinorhizobium arboris sp. nov.
Consider B2, for which the “amount of L-glufosinate formed (HPLC)” value is 14 mM in assay [2] (at 20 hours) and 18 mM in assay [2] (at 30 hours).
